Experimental data as given in the supplement of paper PMC7877785.
± gives the uncertainty stated by the source.

Assay: self-splicing fitness, log relative to wild type (ln ratio); higher = more splicing; Tetrahymena group I intron in knt gene, E. coli kanamycin selection, DiMSum; sequences stand for … in CUCUCU…GGAGGGAAAAGUUAUCAGGCAUGCACCUGGUAGCUAGUCUUUAAACCAAUAGAUUGCAUCGGUUUAAAAGGCAAGACCGUCAAAUUGCGGGAAAGGGGUCAACAGCCGUUCAGUACCAAGUCUCAGGGGAAACUUUGAGAUGGCCUUGCAAAGGGUAUGGUAAUAAGCUGACGGACAUGGUCCUAACCACGCAGCCAAGUCCUAAGUCAACAGAUCUUCUGUUGAUAUGGAUGCAGUUCACAGACUAAAUGUCGGUCGGGGAAGAUGUAUUCUUCUCAUAAGAUAUAGUCGGACCUCUCCUUAAUGGGAGCUAGCGGAUGAAGUGAUGCAACACUGGAGCCGCUGGGAACUAAUUUGUAUGCGAAAGUAUAUUGAUUAGUUUUGGAGUACUCGUGGUCG
Method in brief: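 Library with all eight P1ex-region intron nucleotides randomised, intron inside the knt kanamycin-resistance gene on pET-22b(+), in E. coli BL21(DE3). Cells grew overnight at 37°C or 30°C on LB agar with or without 25 μg/mL kanamycin (plus 100 μg/mL carbenicillin, 50 μM IPTG, 0.2% rhamnose), in six replicate transformations. Pooled colonies were amplicon-sequenced on Illumina HiSeq 2500. DiMSum fitness is the error-weighted combination of wild-type-normalised replicate fold changes, kanamycin versus none.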

Sequence	self-splicing fitness (ln) (30 °C)	self-splicing fitness (ln) (37 °C)
CGCAAGCAAUAUUACGCGAA	-3.58 ± 0.16	-1.87 ± 0.13
CACCAGCAAUAUUACGGAUU	-2.05 ± 0.055	-1.36 ± 0.085
UUAAAGCAAUAUUACGGAAG	-1.67 ± 0.087	-0.452 ± 0.11
AACUAGCAAUAUUACGGUCU	-0.472 ± 0.055	0.465 ± 0.07
AGUGAGCAAUAUUACGCAUU	-2.55 ± 0.21	-1.4 ± 0.19
UCGCAGCAAUAUUACGUUGA	-3.11 ± 0.23	-1.06 ± 0.14
CCAUAGCAAUAUUACGUGAG	-0.355 ± 0.045	0.00486 ± 0.066
AAGGAGCAAUAUUACGCGCU	-3.5 ± 0.44	-1.5 ± 0.4
AAUAAGCAAUAUUACGCAUG	-1.16 ± 0.13	-0.645 ± 0.12
UAACAGCAAUAUUACGUUUG	-2.13 ± 0.079	-0.759 ± 0.081
AGGAAGCAAUAUUACGUCCA	-0.764 ± 0.14	-0.0963 ± 0.22
AAAUAGCAAUAUUACGUUGA	-3.3 ± 0.41	-0.771 ± 0.16
UGAUAGCAAUAUUACGUAUG	-1.1 ± 0.16	-0.567 ± 0.16
CAAAAGCAAUAUUACGUAUA	-3 ± 0.15	-2.38 ± 0.17
ACUCAGCAAUAUUACGUCGU	-1.42 ± 0.07	-0.573 ± 0.081
AUUAAGCAAUAUUACGACCA	-0.395 ± 0.2	-0.571 ± 0.25
ACCUAGCAAUAUUACGAACC	-1.67 ± 0.16	-1.07 ± 0.19
CUACAGCAAUAUUACGUGAG	-0.958 ± 0.058	-0.926 ± 0.086
UAUAAGCAAUAUUACGUCAA	-2.24 ± 0.14	-0.698 ± 0.11
GCAGAGCAAUAUUACGACGG	-2.22 ± 0.2	-1.21 ± 0.18
GUGUAGCAAUAUUACGUGCC	-3.46 ± 0.35	-2.7 ± 0.32
AUCGAGCAAUAUUACGAACC	-0.925 ± 0.36	-0.838 ± 0.4
UCGAAGCAAUAUUACGGUGG	-1.82 ± 0.094	-1.55 ± 0.14
GCUGAGCAAUAUUACGGAUA	-2.7 ± 0.16	-1.8 ± 0.14

Sequence	self-splicing fitness (ln) (30 °C)	self-splicing fitness (ln) (37 °C)
AACAAGCAAUAUUACGCCAG	-2.62 ± 0.15	-1.24 ± 0.15
GGCUAGCAAUAUUACGGCAA	0.218 ± 0.07	-0.682 ± 0.086
AGGAAGCAAUAUUACGUCAC	-3.41 ± 0.2	-3.65 ± 0.3
CAAGAGCAAUAUUACGAGAG	-3.74 ± 0.16	-1.83 ± 0.13
UAAAAGCAAUAUUACGAAUC	-4.16 ± 0.42	-2.13 ± 0.21
UGCUAGCAAUAUUACGGACU	-0.341 ± 0.1	-0.639 ± 0.088
AUCAAGCAAUAUUACGGGUC	-3.33 ± 0.29	-2.19 ± 0.27
UGUAAGCAAUAUUACGGAAG	-1.91 ± 0.13	-2.38 ± 0.21
GCGUAGCAAUAUUACGACCG	-1.5 ± 0.16	-0.0305 ± 0.2
UAAGAGCAAUAUUACGUCAA	-3.41 ± 0.25	-2.36 ± 0.18
GACAAGCAAUAUUACGAUGG	-2.52 ± 0.1	-2.14 ± 0.16
UUGUAGCAAUAUUACGGAUA	-2.68 ± 0.24	-1.42 ± 0.23
UGCAAGCAAUAUUACGAAAA	-2.32 ± 0.28	-1.64 ± 0.17
UGCGAGCAAUAUUACGGGGG	-3.34 ± 0.26	-2.36 ± 0.29
GCAAAGCAAUAUUACGCGUG	-3.41 ± 0.1	-1.27 ± 0.078
CGAUAGCAAUAUUACGUGGG	-2.61 ± 0.17	-0.763 ± 0.16
GCAUAGCAAUAUUACGAUAG	-3.12 ± 0.17	-2.34 ± 0.2
AGUGAGCAAUAUUACGACCG		-0.72 ± 0.27
GGAUAGCAAUAUUACGGCGC	0.356 ± 0.34	0.121 ± 0.33
CAGGAGCAAUAUUACGGCGA	-2.73 ± 0.29	-3.49 ± 0.29
UGGUAGCAAUAUUACGUGUG	-1.29 ± 0.071	-0.469 ± 0.082
UUACAGCAAUAUUACGUUUC	-3.05 ± 0.17	-2.53 ± 0.25
GCAAAGCAAUAUUACGAAAC	-1.75 ± 0.092	-0.783 ± 0.11
CACGAGCAAUAUUACGCUCU	-2.57 ± 0.18	-2.93 ± 0.28

Sequence	self-splicing fitness (ln) (30 °C)	self-splicing fitness (ln) (37 °C)
CUCAAGCAAUAUUACGCGCU	-2.36 ± 0.18	-3.39 ± 0.32
CUCAAGCAAUAUUACGUAUG	-2.91 ± 0.099	-2.61 ± 0.12
UUGUAGCAAUAUUACGACAG	-0.234 ± 0.21	-0.137 ± 0.25
CCGCAGCAAUAUUACGCUUG	-3 ± 0.12	-2.84 ± 0.16
ACUUAGCAAUAUUACGACGG	-0.755 ± 0.081	-0.0301 ± 0.11
CGUGAGCAAUAUUACGUCAG	-1.86 ± 0.16	-0.364 ± 0.15
ACUCAGCAAUAUUACGAUGG	-1.1 ± 0.063	-0.87 ± 0.1
GUGAAGCAAUAUUACGUGUG	-0.934 ± 0.089	-0.737 ± 0.11
AGAUAGCAAUAUUACGCUCA	-0.765 ± 0.087	-0.082 ± 0.11
AGACAGCAAUAUUACGGACC	-0.551 ± 0.075	-0.201 ± 0.086
AAAGAGCAAUAUUACGAGCC	-2.96 ± 0.35	
AGGUAGCAAUAUUACGCAGG	-3.433 ± 0.022	-1.88 ± 0.035
GCUUAGCAAUAUUACGUCUU	-1.1 ± 0.1	-0.549 ± 0.12
GAUGAGCAAUAUUACGGAGG	-3.47 ± 0.26	-3.23 ± 0.35
CGUUAGCAAUAUUACGUACC	-1.39 ± 0.15	-1.09 ± 0.18
CGAUAGCAAUAUUACGGGAU	-4.23 ± 0.31	-2.86 ± 0.27
CAACAGCAAUAUUACGAAUA	-3.74 ± 0.28	-1.83 ± 0.2
CGGAAGCAAUAUUACGACAG	-0.256 ± 0.17	0.0808 ± 0.23
GCGAAGCAAUAUUACGAGCC	-3.17 ± 0.23	
GCACAGCAAUAUUACGCCCG	-1.84 ± 0.17	-0.0618 ± 0.19
CCGGAGCAAUAUUACGAGUC	-3.15 ± 0.26	-1.85 ± 0.28
AAAAAGCAAUAUUACGCGGG	-2.76 ± 0.16	-1.93 ± 0.15
GGCAAGCAAUAUUACGCACG	-1 ± 0.13	0.171 ± 0.24
GAGUAGCAAUAUUACGAGAC	-3.25 ± 0.43	-2.95 ± 0.48

Sequence	self-splicing fitness (ln) (30 °C)	self-splicing fitness (ln) (37 °C)
UUUGAGCAAUAUUACGGACG	-2.51 ± 0.24	-2.71 ± 0.31
UAAAAGCAAUAUUACGUUUG	-2.22 ± 0.1	-0.909 ± 0.11
AAUCAGCAAUAUUACGAGCA	-0.936 ± 0.14	-0.0653 ± 0.12
GCCCAGCAAUAUUACGGACC	-3.47 ± 0.23	-2.94 ± 0.31
GCGAAGCAAUAUUACGCUUA	-2.1 ± 0.21	-0.759 ± 0.2
GAUAAGCAAUAUUACGUUGA	-2.88 ± 0.14	-1.79 ± 0.14
AUGCAGCAAUAUUACGCAUU	-3.49 ± 0.11	-3.37 ± 0.19
UCCCAGCAAUAUUACGAGGU	-1.76 ± 0.071	-0.885 ± 0.073
UUGUAGCAAUAUUACGGUAA	-1.2 ± 0.16	-0.727 ± 0.13
AGCAAGCAAUAUUACGUGCC		-1.63 ± 0.27
GCCGAGCAAUAUUACGGCAU	-4.31 ± 0.46	-3.06 ± 0.35
CAGGAGCAAUAUUACGAGGU	-2.48 ± 0.2	-2.84 ± 0.25
AAUAAGCAAUAUUACGGAGA	-2.61 ± 0.3	-1.76 ± 0.36
UUACAGCAAUAUUACGAAAC	-2.85 ± 0.33	-2.49 ± 0.41
CGGCAGCAAUAUUACGUCUA	-0.607 ± 0.071	0.443 ± 0.084
UUUCAGCAAUAUUACGAUAA	0.592 ± 0.13	0.707 ± 0.15
GAGAAGCAAUAUUACGCACC	-1.91 ± 0.28	-1.41 ± 0.42
UACUAGCAAUAUUACGGGCC	-3.27 ± 0.17	-3.17 ± 0.23
CCCUAGCAAUAUUACGUACC	-1.72 ± 0.18	-1.05 ± 0.3
GCCUAGCAAUAUUACGAUGU	-0.317 ± 0.081	0.35 ± 0.12
GCUGAGCAAUAUUACGACCU	-2.35 ± 0.26	-1.15 ± 0.33
CCGUAGCAAUAUUACGCUUG	-1.48 ± 0.069	-0.347 ± 0.075
CUGAAGCAAUAUUACGGAGC		-0.931 ± 0.49
ACUAAGCAAUAUUACGCACA	-1.23 ± 0.11	0.0989 ± 0.1
